Measured values as given in patent EP4763858A1 (dated 2026).

Biological target: T1, LMP1 (Epstein-Barr virus) peptide on HLA-A*02:01 (human)
T1 peptide: YLLEMLWRL
Assay: multimer staining

B1: T cell receptor LMP1-TCR2 (TCR, V domains shown)
Valpha: AQKITQTQPGMFVQEKEAVTLDCTYDTSDPSYGLFWYKQPSSGEMIFLIYQGSYDQQNATEGRYSLNFQKARKSANLVISASQLGDSAMYFCAMREVALNAGGTSYGKLTFGQGTILTVHP
Vbeta: GAVVSQHPSWVICKSGTSVKIECRSLDFQATTMFWYRQFPKQSLMLMATSNEGSKATYEQGVEKDKFLINHASLTLSTLTVTSAHPEDSSFYICSASGAQPDDPQHFGDGTRLSIL
Does B1 bind?
Result: recognises

B2: T cell receptor LMP1-TCR1 (TCR, V domains shown)
Valpha: AQSVSQHNHHVILSEAASLELGCNYSYGGTVNLFWYVQYPGQHLQLLLKYFSGDPLVKGIKGFEAEFIKSKFSFNLRKPSVQWSDTAEYFCALPRWDGGYNKLIFGAGTRLAVHP
Vbeta: DTEVTQTPKHLVMGMTNKKSLKCEQHMGHRAMYWYKQKAKKPPELMFVYSYEKLSINESVPSRFSPECPNSSLLNLHLHALQPEDSALYLCASSQEGTGELFFGEGSRLTVL
Does B2 bind?
Result: recognises
